Target: the molecule itself
Assay: native MS; native ESI-MS (time-of-flight), 200 mM ammonium acetate pH 7.5, sample at 8 uM; without and with ADPNP, without and with the 155 bp DNA

B1: Thermus thermophilus GyrB-GyrA fusion protein (GyrBA-fus) (enzyme)
chain: MSYDASAIRVLKGLEGVRHRPAMYIGGTGVEGYHHLFKEILDNAVDEALAGYATEILVRLNEDGSLTVEDNGRGIPVDLMPEEGKPAVEVIYTTLHSGGKFEQGAYKVSGGLHGVGASVVNALSEWTVVEVFREGKHHRIAFSRGEVTEPLRVVGEAPRGKTGTRVTFKPDPEIFGNLRFDPSKIRARLREVAYLVAGLKLVFQDRQHGKEEVFLDKGGVASFAKALAEGEDLLYEKPFLIRGTHGEVEVEVGFLHTQGYNAEILTYANMIPTRDGGTHLTAFKSAYSRALNQYAKKAGLNKEKGPQPTGDDLLEGLYAVVSVKLPNPQFEGQTKGKLLNPEAGTAVGQVVYERLLEILEENPRIAKAVYEKALRAAQAREAARKARELVRRQNPLESDELPGKLADCQTENPEEAELFIVEGDSAGGSAKQGRDRRFQAILPLRGKILNVEKAGLSKALKNAEVRAMVSAIGVGIGGDGEAHFDLEGLRYHKIIIMTDADVDGSHIRTLLLTFFYRYMRPLIERGHVYIAQPPLYRLQVGKKVEYLYSDEELQARLKELEGKHYEVQRFKGLGEMNPEQLWETTMNPEKRVLKRVELQDALEASELFEKLMGQEVAPRREFIEEHARYAELDIGDLMAQVLPVEITEELKQSFINYAMSVIVDRALPDVRDGLKPVQRRILFGAYQEGVLPGRKHVKSAKIVGEVMGKYHPHGDAAIYDALVRMAQPWNLRYPLIDGQGNFGSIDGDPPAAQRYTEARLSPIGAEMLLDIDKDTVDFRPNYDGSLKEPEVLPAAIPNLLVNGASGIAVGMATSLPPHNLSEVVDALVAMIENPAITLEEVMRHLPGPDFPTGGKLSKKGIKEAYATGRGSLKVRAKVRVEEKGQRPVLVVTEIPYQVNKASLIAQIAALVKAKKIEDIVGLRDESDRQGLRIAIELKRGANPQVVLNQLYKHTALQTSFTVNLLAIVDGEPKVLSLLDLMRHYLDHRKEVVRRRSLFELRKAEERAHVLEGLLIALDHIDEVIALIRGSEDAPKARIALMERFGLSEAQAQAILDMRLQRLVALEREKLLEEYRGLMEEIARLKAILEDEARLLAEVKADLLRVKEKYGDARRTLITEFEETFNPEDLIEDEPMVITLTAQGFLKRLPLESYRAQGRGGKGLLAGRTKEEDEATHVFVADAHDDLLLFTNRGRVYRLKVYELPEMGRQARGVHVKSLLPLAEDEEVAALLSVRGLDQEGYLVFATERGLVKRTALKEYQNLGQAGLIAIRLQEGDRLVGVALSDPEDEAILATQEGQAIRFPLEEVRATGRDTQGVIGVRFKKPEDRVVSLVVVKPGEMVDLLSVSTRGYGKRTPLSEYPLQGRGGMGVITYAVSTKVGRLAALLKVRGGEDLLVLSRRGLAIRTPVAEIRQYSRATAGVRVMNLPEDDEVASAFVVEEEK
notes: DNA gyrase subunit B (GyrB), Thermus thermophilus, amplified from genomic DNA; three-amino acid G-D-L linker between the C-terminus of GyrB and the N-terminus of GyrA; DNA gyrase subunit A (GyrA), Thermus thermophilus, amplified from genomic DNA; The His10 tag stands upstream of a PreScission protease (P3C) site; Details of cloning and purification are in the Supplementary Methods; A dimer of the …
With B1 the “stoichiometry N” value was 2.

— paper PMC3763546, “Structural insight into negative DNA supercoiling by DNA gyrase, a bacterial type 2A DNA topoisomerase” (Nucleic Acids Research, 2013)
